The text below walks through data of paper PMC9313494.

In this experiment the target is Lys-Nle peptide. In words: SPR; Lys-Nle peptide immobilised via its terminal thiol group on a CM5 chip (1123.9 RU); BMP-2 flown at increasing concentrations in PBS-T at 50 µL/min; regeneration with Gly-HCl pH 1.5; nonfunctionalized reference channel; Langmuir fit (BIAevaluation). On the technique in general: Surface plasmon resonance follows binding to a sensor surface in real time, without labels.

As usually defined, the Kd is the equilibrium constant for the complex coming apart.

B1: bone morphogenetic protein-2 (BMP-2) (ligand)
chain: QAKHKQRKRLKSSCKRHPLYVDFSDVGWNDWIVAPPGYHAFYCHGECPFPLADHLNSTNHAIVQTLVNSVNSKIPKACCVPTELSAISMLYLDENEKVVLKNYQDMVVEGCGCR
As to B1, the Kd was 36.6 nM. In other words, the double-digit nanomolar range.
